This is an account of results in paper PMC10771423, “Discovery and biochemical characterization of thermostable glycerol oxidases” (Applied Microbiology and Biotechnology, 2024).

Substrate in data set [1]: OC[C@@H](O)[C@H](O)[C@@H](O)CO
The experiment in a line: purified protein. The settings on record: 50 mM KPi pH 7.5, 25 °C, O2 as co-substrate.

Substrate in data set [2]: OCC(O)CO
The experiment in a line: purified protein. The settings on record: 50 mM KPi pH 7.5, 25 °C, O2 as co-substrate.

B1: AldOTf (Thermopolyspora flexuosa) (protein)
chain: MRSTNWAGNVVFRASELHRPASIDELRRVVARSPKVRVLGSGHSFNEITDTDGTLVSLDALPPEVEIDGATGTARISAGLRYGELSRRLHAAGHALANLASLPHICVAGACATGTHGSGDGNGGLATSVTAVELVTGEGDLVTLSRDADPDRFPGAVVSLGALGVVVAMTLRLVPAFEVRQRVYENLPAEALAGHFDEIMASGYSVSLFTDWRGDRISQVWVKERVDASSGAPGDEREPVVAALGATPADGPRHPVPGMPAVNCTEQLGVPGPWFERLPHFRPEFTPSSGDELQAEYLLPRRHAVAAFQALAGIADRIAPVLHISEIRTVAADDLWLSPFHGRDTVAFHFTWKRDEAAVLDVLGLMEDVLAPFEPRPHWGKLFTIPPKVLHSRYDRMADFRALARELDPAGKFANAFVARHVLEIE
As for B1, in the data set “purified protein [1]”, the Km was determined as 30 µM, the kcat came out at 3.1 s⁻¹ and the kcat/Km was determined as 100000 M⁻¹ s⁻¹. In “purified protein [2]”, the Km came out at 50000 µM, the kcat was determined as 1.6 s⁻¹ and the kcat/Km is 32 M⁻¹ s⁻¹.

B2: AldOAb (Actinomycetota bacterium) (protein)
chain: MTMRSTNWAGNVVYRASELHRPASLDELRRVVARSPKVRVLGSGHSFNEITDTEGALVSLEALPPEVEIDRATGTARVAAGLRYGELSARLHAAGYALPNLASLPHICVAGACATGTHGSGDGIGGLAGSVTAVELVTADGDLVTLSRDADPDRFPGAVVSLGALGAVVTMTLRLEPAFQVRQRVYENLPAEALDDHFDEIMASGYSVSLFTDWRGDRIRQVWVKERVGDPAAGGEEREPVVAALGATPADGPRHPVPGMPAANCTEQLGVPGPWHERLPHFRLGFTPSSGDELQAEYLLPRRHAVAAFHALAGIADRIAPVLHISEIRTVAADDLWLSPFHGRNTVAFHFTWKPDEAAVREVLSLMEEVLAPFEPRPHWGKLFAIPPKVLRSRYDRIGDFRALARELDPSGKFANAFVAHHVLDDE
Regarding B2, in “purified protein [1]”, the Km came out at 30 µM, the kcat came to 4.2 s⁻¹ and the kcat/Km amounted to 140000 M⁻¹ s⁻¹.

B3: AldOCh (Thermostaphylospora chromogena) (protein)
chain: MSPTLTNWAGNIVFRAGEVHRPETLEELRTLVTRADKVRVLGSGHSFNDIADSPGVLVSPSRLPRELELDTAAGAVRVSAGIRYAELSAWLHERGFALHNLASLPHISVAGSCATATHGSGDGNGNLATAVRALTLVTAEGDLVDLDRERDGDRFRGAVVGLGALGVVVSMTLDVEPTFEVRQRVYEDLPLEAACDHFSDIMGCAYSVSMFSDWTSSRINQVWVKERVDEDGSRPPGPASFGAKPADGPRHPIARMPAGNCTEQLGVPGPWFARLPHFRPEFTPSGGQERQAEYLVPRRHAVAALRELAAIGDRIAPVLQISEIRTIAADDLWLSPCQGRDTVGFHFTLIPDTAAVLPVLELIEERLAPFEARPHWGKLFTTPPAVLRSRYDRLPDFQALARDLDPGGKFANEFISRNLLDA
Consider B3, for which, in the data set “purified protein [1]”, the Km was found to be 40 µM, the kcat amounted to 3.5 s⁻¹ and the kcat/Km stood at 120000 M⁻¹ s⁻¹.

Broadly, the Km is the concentration of substrate that gives half-maximal velocity. In general, kcat refers to the maximal rate divided by the concentration of active sites. Broadly, the kcat/Km is the turnover number divided by the Michaelis constant.
